Experimental data published in patent publication US20230167426.

Molecular target: T1, AcrE2 (type I-E anti-CRISPR from Pseudomonas phage JBD88a)
T1 chain: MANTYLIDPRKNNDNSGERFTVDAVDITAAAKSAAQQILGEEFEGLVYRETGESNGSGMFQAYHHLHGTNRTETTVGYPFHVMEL

B1: 6×His-tagged NmeCas9 (Neisseria meningitidis Cas9) (protein)
chain: MAAFKPNSINYILGLDIGIASVGWAMVEIDEEENPIRLIDLGVRVFERAEVPKTGDSLAMARRLARSVRRLTRRRAHRLLRTRRLLKREGVLQAANFDENGLIKSLPNTPWQLRAAALDRKLTPLEWSAVLLHLIKHRGYLSQRKNEGETADKELGALLKGVAGNAHALQTGDFRTPAELALNKFEKESGHIRNQRSDYSHTFSRKDLQAELILLFEKQKEFGNPHVSGGLKEGIETLLMTQRPALSGDAVQKMLGHCTFEPAEPKAAKNTYTAERFIWLTKLNNLRILEQGSERPLTDTERATLMDEPYRKSKLTYAQARKLLGLEDTAFFKGLRYGKDNAEASTLMEMKAYHAISRALEKEGLKDKKSPLNLSPELQDEIGTAFSLFKTDEDITGRLKDRIQPEILEALLKHISFDKFVQISLKALRRIVPLMEQGKRYDEACAEIYGDHYGKKNTEEKIYLPPIPADEIRNPVVLRALSQARKVINGVVRRYGSPARIHIETAREVGKSFKDRKEIEKRQEENRKDREKAAAKFREYFPNFVGEPKSKDILKLRLYEQQHGKCLYSGKEINLGRLNEKGYVEIDHALPFSRTWDDSFNNKVLVLGSENQNKGNQTPYEYFNGKDNSREWQEFKARVETSRFPRSKKQRILLQKFDEDGFKERNLNDTRYVNRFLCQFVADRMRLTGKGKKRVFASNGQITNLLRGFWGLRKVRAENDRHHALDAVVVACSTVAMQQKITRFVRYKEMNAFDGKTIDKETGEVLHQKTHFPQPWEFFAQEVMIRVFGKPDGKPEFEEADTLEKLRTLLAEKLSSRPEAVHEYVTPLFVSRAPNRKMSGQGHMETVKSAKRLDEGVSVLRVPLTQLKLKDLEKMVNREREPKLYEALKARLEAHKDDPAKAFAEPFYKYDKAGNRTQQVKAVRVEQVQKTGVWVRNHNGIADNATMVRVDVFEKGDKYYLVPIYSWQVAKGILPDRAVVQGKDEEDWQLIDDSFNFKFSLHPNDLVEVITKKARMFGYFASCHRGTGNINIRIHDLDHKIGKNGILEGIGVKTALSFQKYQIDELGKEIRPCRLKKRPPVR
in vitro DNA cleavage by NmeCas9: Cleavage was unaffected by prior incubation of NmeCas9 with increasing amounts of the control, type I-specific anti-CRISPR, AcrE2
